# Experimental data from the RNAGym collection of RNA variant scans (doi:10.1073/pnas.2313332121).
# B1: TPR t1 (parent)
# chain: GACCAAUCUGCCCUCAGAGCUCGAGAACAUCUUCGGAUGCAGAGGAGGCAGGCUUCGGUGGCGCGAUAGCGCCAACGUCCUCAACCUCCAAUGCAUCCCACCACAUGAUGAUGCCUGAAGAGCCUUGGUUUUUUG
# Variants of: B1
# Assay: polymerase ribozyme fitness, log enrichment relative to wild type (log ratio); higher = more active; in vitro selection for triplet polymerase activity
# Outline: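 Each subunit of a heterodimeric triplet polymerase ribozyme was mutagenized into a library by PCR, transcribed, and subjected to one round of in vitro selection, run in triplicate. Libraries were annealed with a biotinylated primer, the partner subunit and triplets, incubated frozen at −7 °C, and extended constructs were gel-excised, captured on streptavidin beads and recovered by RT-PCR. Input and output libraries were sequenced on Illumina, keeping genotypes with ≥10 input reads and ≥1 read per output. Fitness is log base 2 of genotype enrichment divided by wild-type enrichment, from inverse-variance-weighted replicate averages.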
row,Variant,polymerase ribozyme fitness (log ratio)
1,G63C C123G,0.737
2,G63U C85A,-3.39
3,A66C U78C C101G C123A U132A,-3.72
4,G65A C72U,-6.47
5,C64U A83U A95G G127C,-2.12
6,C64U A83G A111C,-2.93
7,A66C C85A,-3.06
8,G65C C85U A108U C123G,-7.43
9,C64U A121G,1.93
10,G63U U78A A90U C94U G122U,-3.99
11,A66G G71A A83C C88U U106A U130G,-3.75
12,G63U U87G G117U C123A,-3.97
13,G65A A68G A121U C123G,-5.3
14,C64A U87A G93A U112A,-5.11
15,A66G C124G G128A,-1.05
16,C64U G107U,-5.43
17,G63U U125A,-1.51
18,C64U A111C C115A,-4.52
19,C64U U116G,-1.88
20,A66U C97U G120U C123U,-0.305
21,G63U C80A,-4.88
22,G63U C82A U126A,-3.13
23,G63U U78C C123U,-1.9
24,G63C U109G,-3.42

row,Variant,polymerase ribozyme fitness (log ratio)
1,G63C U109C,-4.03
2,C64A,-6.28
3,C64G,-6.67
4,C64U,-0.125
5,C64U A118G,-1.18
6,G63U C94A A108G,-5.53
7,A66C C89A G117U,-6.24
8,G63C U96A,-2.05
9,C64U G93A U96A U126G,-5.25
10,C64U G65A,-4.3
11,G65A C88G,-5.43
12,A66G A83C C89U A95C,-2.97
13,G65A U112A,-2.74
14,C64U A95G C115G,-2.07
15,C64U U87G G113A,-0.485
16,G65A G117U,-6.21
17,G63U U67A,-6.27
18,G63C U78C,-1.55
19,G65U C70U,-5.58
20,C64U G69U G128C,-3.93
21,A66C C86U C114G U129G,-4.68
22,C64G U87A C124A,-5.74
23,G63C U116G,-2.02
24,G63U G113C,-2.98

row,Variant,polymerase ribozyme fitness (log ratio)
1,G63U G113U,-4.29
2,G63U G113A,-1.99
3,G63U A68C A121G,-5.43
4,C64U U112C,0.999
5,C64U U112G,-0.0625
6,C64U U112A,0.346
7,G65A G69A U112C,-4.9
8,A66U G77A A95C,-2.7
9,C64U A84U U87A,-1.17
10,C64G C82G C89U A100G A111C U116A U129G,-5.44
11,A66C C94A C114G G120C,-5.33
12,C64U C114G C115A C123G C124A,-4.37
13,C64U C124A,1.41
14,A68C C115G C124U,-6.57
15,C64A G120A,-5.35
16,C64A G120U,-6.12
17,A66U C115U,-3.52
18,A66C C72G C115A,-1.65
19,C64U A100U,-0.493
20,C64G G113A,-6.17
21,G63U U112A,-0.0798
22,G63U U112C,-0.421
23,G63U A83G,-1.76
24,C64U U129G,-1.46

row,Variant,polymerase ribozyme fitness (log ratio)
1,C64U U129A,-0.991
2,C64U U129C,-0.708
3,A66U C88U,-0.564
4,G63C C97U,-0.711
5,C64G C88U,-5.96
6,G63U G77C C124U,-0.341
7,G63C U81C,-0.941
8,G63U C101U C115U C124U,-3.55
9,G63U C98A,-6.63
10,G63U C98U,-2.09
11,A66C C85G U130A,-3.4
12,C64U A103U,-3.47
13,G65U C73U,-5.34
14,G63U C99U U106A,-3.55
15,C64U C115U U130A,-1.66
16,C64U C79U U106A U109A,-5.15
17,G65A G77A,-5.24
18,G63C U81C A90U,-3.06
19,C64U C72G U78A G127U U129C,-1.9
20,A66G G122A U129C,-2.27
21,A66U C79G,-4.01
22,A66C G120U U132C,-0.962
23,G63C C89A U116G,-4.71
24,C64U U131A,0.0289

row,Variant,polymerase ribozyme fitness (log ratio)
1,C64U A103C G117U,-6.58
2,G63U U116C U129A,-3.33
3,G63U U132A,-0.852
4,G63U U132C,-2.69
5,C64A A84C,-5.15
6,C64U G127U,-0.401
7,G63C G93C C97U C101U,-1.93
8,A66G C76G,-1.2
9,A66G C76A,-1.89
10,C64U C82U G93U C94U U96C C123U,-3.01
11,G63U C89U G93A G120A,-1.65
12,A68C A105C U112G,-6.56
13,C64U G77C C79U C98A A121U U133C,-2.71
14,G63U G120A U129G,-2.16
15,G63U U81G A121C,-3.58
16,G63C U87A A100U G127C,-2.77
17,G63U C86A,-2.12
18,A66U A74G A118U,-0.793
19,G63C C94A U112A U116A,-2.14
20,G63U C89G,-1.88
21,G65U C72A,-5.48
22,C64A U106C,-6.82
23,C64U U78C C104U,0.13
24,A68G A100C,-4.96

row,Variant,polymerase ribozyme fitness (log ratio)
1,G63C G117U,-2.64
2,U67C G93U,-5.03
3,G63U U134C,-2.26
4,G63U C124A,0.583
5,G63U C124G,0.287
6,G63C U125C,-3.57
7,G63U U112A A119G,-0.127
8,G63U G117C,-4.05
9,G63U G117A,-1.66
10,A66C U112A G128C,-4.27
11,C64U A111G,1.06
12,C64U C76G C85A,-3.38
13,A68C U78G U112A,-7.68
14,A66U C72G A95C G110U,-6.57
15,A66G C79G U81C C99G G113U G120C,-7.68
16,A66G U78C U87G,-0.388
17,G63U A91C,-3.19
18,G63U C70U U129A,-1.48
19,G63U C94G A121U,0.0576
20,A66U C85U,-2.22
21,A66U C85G,-1.65
22,C64U C97A,-5.08
23,C64U C72A A108C,-5.82
24,A66G U87A,-0.982

row,Variant,polymerase ribozyme fitness (log ratio)
1,A66C C124U,0.285
2,C64U G71U,-2.96
3,C64U G77A C80A U92C,-5.1
4,G63U U116A,-3.57
5,A66U C124U,0.294
6,A66U C124G,0.671
7,A66C U96C,-2.57
8,A66C A75G,-1.09
9,C64U G117C C123U U125A,-6.02
10,G63U U131A,-0.516
11,G65A A111C,-5.66
12,C64U C82A A91U G127U,-2.81
13,C64U A91C G93A G120A U133G,-1.92
14,C64A A83G U92G C99U C104A,-8.04
15,G65A G110A,-5.47
16,A66C U78C,-1.36
17,C64U U130G,-0.668
18,C64U G107U U130C,-6.04
19,G63U C115A,-1.22
20,G63U C115U,-3.37
21,G63U C115G,-2.29
22,C64G G65U C79G C104A C115A C123G,-6.93
23,C64U A100U U130A,-1.02
